Measured values published in US20150065420A1 (EXTEND BIOSCIENCES, published 2015).

Biological target: GHS-R (ghrelin receptor) expressed on CHO-K1 cells
Assay: cell-based or functional assay

Sequence of GHS-R (ghrelin receptor) expressed on CHO-K1 cells (Q92847 whole entry): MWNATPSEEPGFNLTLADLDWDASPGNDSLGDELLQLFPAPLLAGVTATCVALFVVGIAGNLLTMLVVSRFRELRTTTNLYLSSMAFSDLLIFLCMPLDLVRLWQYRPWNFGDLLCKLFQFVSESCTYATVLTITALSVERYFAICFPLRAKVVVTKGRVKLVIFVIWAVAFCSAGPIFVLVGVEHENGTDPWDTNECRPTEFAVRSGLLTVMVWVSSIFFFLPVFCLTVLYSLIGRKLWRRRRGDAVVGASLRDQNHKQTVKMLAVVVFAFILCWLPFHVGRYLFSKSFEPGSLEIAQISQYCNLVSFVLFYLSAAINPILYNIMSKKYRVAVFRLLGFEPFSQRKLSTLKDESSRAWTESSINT

B1: Vitamin D3-PEG-maleimide carrier-conjugated ghrelin from Example 3 (peptide)
peptide: GSSFLSPEHQKAQQRKESKKPPAKLQPRC
modifications: n-octanoyl on Ser 3; added C-terminal Cys conjugated through its thiol to the Vitamin D3-PEG(2 kDa)-maleimide carrier of Example 1
In the case of B1, the “EC50 of intracellular calcium flux (FLIPR, % activation) in GHS-R-expressing CHO-K1 cells” value is reported as 85 nM.
